The assay deals with T1, gC1qR, the receptor of the globular part of the complement protein C1q, from rat brain membrane fractions (rat, UniProt O35796 72-279).
T1 construct: also called ~30 kDa band
T1 sequence (looked up): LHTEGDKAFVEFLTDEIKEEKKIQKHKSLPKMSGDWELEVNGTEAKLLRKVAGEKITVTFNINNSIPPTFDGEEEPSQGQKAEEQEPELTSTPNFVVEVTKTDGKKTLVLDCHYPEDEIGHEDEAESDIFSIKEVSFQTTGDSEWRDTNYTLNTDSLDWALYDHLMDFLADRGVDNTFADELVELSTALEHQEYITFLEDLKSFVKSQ
The assay is described as follows: chemical cross-linking to rat brain membrane fraction, Tricine-PAGE, Western blot with streptavidin-HRP; band identified as gC1q-R by LC-MS/MS. The method, then:
The reaction was terminated using 50 mM Tris buffer, and samples were ethanol precipitated and resolved using Tricine-PAGE and visualised by Western blot analysis by streptavidin-horse radish peroxidase. A clear band at ˜30 kDa (indicated by an arrow) was observed following chemical crosslinking using biotinylated TLQP-21., which was many orders of magnitude greater than the corresponding band in the membrane control lane using unconjugated Sulfo-EMCS cross-linker. b, Membrane fractions of P4 rat brain was applied to either monomeric avidin column attached with TLQP-21 or monomeric avidin column only (“Negative control”). Following considerable washes, proteins bound to the columns were eluted and resolved on SDS-PAGE, followed by silver staining. A ˜30 kDa band (arrow) was apparent in the elutant from the TLQP-21-attached column. C, The ˜30 kDa band was analysed by LC-MS/MS Orbitrap following trypsinisation.
Ccl11 has been linked to inflammation²³, while Cxcl9 is known as a natural antagonist to Ccl11 receptor CCR3²⁴. We then used Sulfo-EMCS-conjugated TLQP-21 to purify and identify receptor(s) for TLQP-21. […] The membrane fractions of rat brain was incubated with the crosslinker-conjugated TLQP-21, and analysed by Tricine-PAGE and Western blotting using Streptavidin-HRP for the biotin tag on TLQP-21.
Background: A western blot detects proteins with antibodies after separation by electrophoresis.

B1: Sulfo-EMCS cross-linker-conjugated biotinylated TLQP-21 (peptide)
peptide: TLQPPASSRRRHFHHALPPARC
modifications: biotin covalently attached via the amide bond at the N-terminus; Sulfo-EMCS cross-linker conjugated via the sulphydryl group of the extra cysteine at the C-terminus
notes: Used for chemical cross-linking to rat membrane fractions; also called crosslinker-conjugated TLQP-21; Sulfo-EMCS-conjugated TLQP-21
Take B1: the binding result is on record as “binds”.

Source of the values: US20140370024A1 (IMPERIAL INNOVATIONS, published 2014).
